Positions count from the first letter of the chain named. Where two headings read alike, the source gives them in different places.
Assays:
[1] = biological target: T1, G-CSFR on NFS-60 cells (murine myeloblastic cell line) (mouse, UniProt P40223 26-837); test: cell-based or functional assay
T1 sequence (looked up): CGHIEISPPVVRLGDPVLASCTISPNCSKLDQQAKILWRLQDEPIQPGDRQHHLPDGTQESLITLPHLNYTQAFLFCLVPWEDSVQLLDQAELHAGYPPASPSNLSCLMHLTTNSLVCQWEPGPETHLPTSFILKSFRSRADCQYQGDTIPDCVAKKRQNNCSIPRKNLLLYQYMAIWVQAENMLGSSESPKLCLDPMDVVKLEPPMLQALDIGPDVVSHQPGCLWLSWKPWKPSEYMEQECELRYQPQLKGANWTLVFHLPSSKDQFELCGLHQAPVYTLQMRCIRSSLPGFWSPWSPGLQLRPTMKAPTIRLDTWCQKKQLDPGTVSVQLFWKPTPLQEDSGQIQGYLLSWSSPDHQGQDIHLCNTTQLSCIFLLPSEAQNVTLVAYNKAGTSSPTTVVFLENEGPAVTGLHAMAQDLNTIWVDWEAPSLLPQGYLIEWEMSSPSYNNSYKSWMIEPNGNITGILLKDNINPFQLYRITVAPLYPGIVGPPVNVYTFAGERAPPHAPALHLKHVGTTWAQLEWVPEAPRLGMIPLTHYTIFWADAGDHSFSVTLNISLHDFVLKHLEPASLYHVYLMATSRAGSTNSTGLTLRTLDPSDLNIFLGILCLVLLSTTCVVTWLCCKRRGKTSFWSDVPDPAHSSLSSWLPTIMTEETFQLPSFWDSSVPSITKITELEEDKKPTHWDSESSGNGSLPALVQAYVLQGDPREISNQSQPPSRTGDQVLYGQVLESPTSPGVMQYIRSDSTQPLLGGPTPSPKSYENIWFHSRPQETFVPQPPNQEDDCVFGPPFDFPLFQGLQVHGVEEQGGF

[2] = biological target: T2, G-CSF Receptor (G-CSFR) (R&D systems 381-GR-050/CF), recombinant human (human, UniProt Q99062 25-627, limits assumed); test: SPR, Biacore X100 single-cycle kinetics, G-CSFR amine-coupled on CM5, 1:1 binding model
T2 construct: Bought protein, amine-coupled to a CM5 chip; also called rhG-CSFR; human G-CSF receptor
T2 sequence (looked up): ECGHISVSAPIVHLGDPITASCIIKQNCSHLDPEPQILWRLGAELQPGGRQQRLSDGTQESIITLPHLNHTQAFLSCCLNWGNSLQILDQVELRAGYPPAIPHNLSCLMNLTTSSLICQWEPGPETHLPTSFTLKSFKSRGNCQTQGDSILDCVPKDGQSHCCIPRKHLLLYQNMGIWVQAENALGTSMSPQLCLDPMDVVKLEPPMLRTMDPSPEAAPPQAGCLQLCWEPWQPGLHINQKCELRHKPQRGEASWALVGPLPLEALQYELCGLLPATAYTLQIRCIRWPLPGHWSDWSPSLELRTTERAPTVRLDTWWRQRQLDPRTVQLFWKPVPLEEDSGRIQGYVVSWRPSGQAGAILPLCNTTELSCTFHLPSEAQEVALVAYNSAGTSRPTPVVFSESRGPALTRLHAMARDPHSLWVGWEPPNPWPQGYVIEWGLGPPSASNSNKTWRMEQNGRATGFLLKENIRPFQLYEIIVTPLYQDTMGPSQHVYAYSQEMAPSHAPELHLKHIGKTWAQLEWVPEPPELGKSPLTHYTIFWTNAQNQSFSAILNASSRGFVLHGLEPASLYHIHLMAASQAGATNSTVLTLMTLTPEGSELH
Description: To test whether the grafted epitope residues mediate binding of the designs to the G-CSF receptor, the inventors also performed SPR measurements for the Moevan and diSohair2 initial design templates (Moevan_control and diSohair_control, respectively), and no binding was observed (FIG. 20C,F).
Single-cycle kinetics experiments were performed on a Biacore X100 system (GE Healthcare Life Sciences). G-CSF Receptor (G-CSFR) (R&D systems 381-GR-050/CF) was diluted to 50 μg/ml in 10 mM acetate buffer pH 5.0 and immobilized on the surface of a CM5 sensor chip (GE Healthcare 29149604) using standard amine coupling chemistry. The designs and rhG-CSF (USP RS Filgrastim, Sigma-Aldrich 1270435) were diluted in running buffer (10 mM HEPES, 150 mM NaCl, 3.4 mM EDTA, 0.005% v/v Tween-20). Analyses were conducted at 25° C. at a flow rate of 30 μl/min. Five sequential 10-fold increasing concentrations of the sample solution (for the designs from 0.5 nM to 50 μM, and for rhG-CSF from 0.05 to 500 nM) were injected over the functionalized sensor chip surface for 180 s, followed by a 180 s dissociation with running buffer. At the end of each run, the sensor surface was regenerated with a 240 s injection of 10 mM glycine-HCl pH 2.0. Each experiment was performed two times for rhG-CSF, Boskar3, Boskar4, diSohair2, Moevan, and Moevan_t2. Association rate (ka), dissociation rate (kd), and equilibrium dissociation (Kd) constants were initially obtained by global fitting of the experimental reference-subtracted data to a 1:1 interaction model using the Biacore X100 evaluation software (v.2.0.1). To evaluate if a kinetics model that depends on double the analyte stoichiometry improves the goodness of fit to the data, the following rate integral was used: […]

[3] = biological target: T2, G-CSF Receptor (G-CSFR) (R&D systems …); test: SPR (Biacore), G-CSFR immobilised on the chip, diSohair2 250 nM - 4000 nM as analyte, five traces with binding model fit [panel B]
[4] = biological target: T2, G-CSF Receptor (G-CSFR) (R&D systems …); test: SPR (Biacore), G-CSFR immobilised on the chip, Moevan 2 nM - 32 nM as analyte, five traces with binding model fit [panel D]
[5] = biological target: T1, G-CSFR on NFS-60 cells (murine …); test: cell-based or functional assay; remark: listed apart in the source
[6] = biological target: T2, G-CSF Receptor (G-CSFR) (R&D systems …); test: SPR (Biacore), G-CSFR immobilised on the chip, Moevan_t2 2 nM - 32 nM as analyte, five traces with binding model fit [panel E]

B1: Sohair (designed binder)
chain: MTSDYIIEQIQRKQEEARLKVEEMERKLEAVKEASKRGVSSDQLLNLILDLADIITTLIQIIEESNEAIKELIKNQKGPTSDYIIEQIQRDQEEARKKVEEAEERLERVKEASKRGVSSDQLLDLIRELAEIIEELIRIIRRSNEAIKELIKNQ
For B1, the “NFS-60 EC50 (ng/mL), proliferation of NFS-60 cells” value (shortened to “NFS-60 EC50 (ng/mL), proliferation”) [1] was 5050 ng/mL.

B2: Boskar_1 (designed binder)
chain: AALAAELAEIYKGLAEYQARLQSLEGISPELGPALDALRLDVADFATTLAQAMEEKKTNLPQSFLLKALEQIRKIQADAAALREKLAATYTGTDRAAAAVEIAAQLEAFLEKAYEILRHLAAA
B2 was tested, and the “NFS-60 EC50 (ng/mL), proliferation” value [1] was 2170 ng/mL.

B3: Disohair_1 (designed binder)
chain: MTSDYIIEQIQRKQEEARLKVEEMERKLEEVKEASKRGVSSDQLLNLILDLADIITTLIQIIEESNEAIKELIKNQ
In the case of B3, the “NFS-60 EC50 (ng/mL), proliferation” value [1] is reported as 2380 ng/mL.

B4: Disohair_2 (designed binder)
chain: B3 chain with M24Q, E30A
notes: Expressed with an N-terminal hexa-His-tag and thrombin site
In the case of B4, the Kd [2] is reported as 4500 nM, the koff [2] is reported as 0.0095 s⁻¹ and the kon [2] is reported as 2100 M⁻¹ s⁻¹. The “NFS-60 EC50 (ng/mL), proliferation” value [1] was 396 ng/mL, the Kd [3] was 4550 nM and the koff [3] was 0.00949 s⁻¹. It also gave a kon [3] of 2080 M⁻¹ s⁻¹.

B5: Moevan (designed binder)
chain: MEAAAAARDESAYLKLQEQMRKIDADAAALSETRTIEELDTFKLDVADFVTTVVQLAEELEHRFGRNRRGRTEIYKIVKEVDRKLLDLTDAVLAKEKKGEDILNMVAEIKALLINIYK
notes: also called Movean
B5 showed a Kd [4] of 21.7 nM, a koff [4] of 0.00599 s⁻¹ and a kon [4] of 275000 M⁻¹ s⁻¹. The Kd [2] was 21 nM, the koff [2] was 0.0059 s⁻¹ and the kon [2] was 290000 M⁻¹ s⁻¹. The “NFS-60 EC50 (ng/mL), proliferation” value [1] was 356 ng/mL.

B6: moevan_st2 (designed binder)
chain: EAAAAARDESAYLKLQEQMRKIDADAAALSETRTIEELDTFKLDVADFVTTVVQLAEELEHRFGRNRRGRTEIYKIVKEVDRKLLDLTDAVLAKEKKGEDILNMVAEIKALLINIYKGGGGSSEAAAAARDESAYLKLQEQMRKIDADAAALSETRTIEELDTFKLDVADFVTTVVQLAEELEHRFGRNRRGRTEIYKIVKEVDRKLLDLTDAVLAKEKKGEDILNMVAEIKALLINIYK
B6 was tested, and the “NFS-60 EC50 (ng/mL), proliferation” value [5] was 8.89 ng/mL.

B7: bika1 (designed binder)
chain: SKEVLEQSLFLKLDEQVRKLLADIHAIKIDRITGNMDKQKLDTAYLDVADIETTLYQLIEVSH
For B7, the “NFS-60 EC50 (ng/mL), proliferation” value [5] was 63 ng/mL.

B8: bika2 (designed binder)
chain: B7 chain with A44L
For B8, the “NFS-60 EC50 (ng/mL), proliferation” value [5] was 98 ng/mL.

B9: boskar4_st2 (designed binder)
chain: AALAAALAEIYKGLAEYQARLKSLEGISPELGPALDALRLDMADFATTMAQAMEEGLDSLPQSFLLKALEQIRKIQADAAALREKLAATYKGNDRAAAAVEIAAQLEAFLEKAYQILRHLAAAGGGGSSAALAAALAEIYKGLAEYQARLKSLEGISPELGPALDALRLDMADFATTMAQAMEEGLDSLPQSFLLKALEQIRKIQADAAALREKLAATYKGNDRAAAAVEIAAQLEAFLEKAYQILRHLAAA
In the case of B9, the “NFS-60 EC50 (ng/mL), proliferation” value [5] is reported as 0.202 ng/mL.

B10: boskar4_15rl (designed binder)
chain: AALAAALAEIYKGLAEYQARLKSLEGISPELGPALDALRLDMADFATTMAQAMEGGGGSGGGGSGGGGSQSFLLKALEQIRKIQADAAALREKLAATYKGNDRAAAAVEIAAQLEAFLEKAYQILRHLAAA
With B10 the “NFS-60 EC50 (ng/mL), proliferation” value [5] was 48.5 ng/mL.

B11: Boskar_2 (designed binder)
chain: AALAAELAEIMKGLQEYQARLKSLEGISPELGPALDALRLDMADFATTMAQMMEENPSDLPQSFLLKALEQIRKIQADAAALREKLAATYPNSQRAAAAVEIAAQLEAFLEKAYQILRHLAAA
With B11 the “NFS-60 EC50 (ng/mL), proliferation” value [1] was 3220 ng/mL.

B12: boskar4_t2 (designed binder)
chain: AALAAALAEIYKGLAEYQARLKSLEGISPELGPALDALRLDMADFATTMAQAMEEGLDSLPQSFLLKALEQIRKIQADAAALREKLAATYKGNDRAAAAVEIAAQLEAFLEKAYQILRHLAAAGGGGSSGGGGSSGGGGSSGGGGSSAALAAALAEIYKGLAEYQARLKSLEGISPELGPALDALRLDMADFATTMAQAMEEGLDSLPQSFLLKALEQIRKIQADAAALREKLAATYKGNDRAAAAVEIAAQLEAFLEKAYQILRHLAAA
For B12, the “NFS-60 EC50 (ng/mL), proliferation” value [5] was 4.2 ng/mL.

B13: sohair2_15r (designed binder)
chain: MTSDYIIEQIQRKQEEARLKVEEQERKLEAVKEASKRGVSSDQLLNLILDLADIITTLIQIIEESNEAIKELIKNQGGGGSGGGGSGGGGSDYIIEQIQRKQEEARLKVEEQERKLEAVKEASKRGVSSDQLLNLILDLADIITTLIQIIEESNEAIKELIKNQ
With B13 the “NFS-60 EC50 (ng/mL), proliferation” value [5] was 228 ng/mL.

B14: Moevan_t2 (designed binder)
chain: EAAAAARDESAYLKLQEQMRKIDADAAALSETRTIEELDTFKLDVADFVTTVVQLAEELEHRFGRNRRGRTEIYKIVKEVDRKLLDLTDAVLAKEKKGEDILNMVAEIKALLINIYKGGGGSSGGGGSSGGGGSSGGGGSSEAAAAARDESAYLKLQEQMRKIDADAAALSETRTIEELDTFKLDVADFVTTVVQLAEELEHRFGRNRRGRTEIYKIVKEVDRKLLDLTDAVLAKEKKGEDILNMVAEIKALLINIYK
notes: Tandem fusion of two Moevan copies joined by a 24 amino acid GS linker
Work on B14 yielded a Kd [6] of 1.2 nM, a koff [6] of 0.00036 s⁻¹ and a kon [6] of 300000 M⁻¹ s⁻¹. For the same binder, the Kd [2] was 1.1 nM, the koff [2] was 0.0003 s⁻¹ and the kon [2] was 310000 M⁻¹ s⁻¹. For the same binder, the “NFS-60 EC50 (ng/mL), proliferation” value [5] was 47.1 ng/mL.

Reference: patent US20230227520A1 (MAX PLANCK GESELLSCHAFT ZUR F RDERUNG DER WISSENSCHAFTEN E V, published 2023)
